Reference: patent US20150299281A1 (ZEALAND PHARMA A S, published 2015)
Numbered stars: 1 amine (or outer) side, 2 acyl side, 3 side chain; on linkers, the order of the positions; unused ones are H or OH. Square brackets hold non-standard residues; d marks the D form. Side chains are listed from the residue outwards. * marks the point of attachment. γGlu = O=C(O)[C@H](CCC(=O)[*:2])N[*:1]; Palmitoyl = CCCCCCCCCCCCCCCC(=O)*; Aib = CC(C)(N)C(=O)O

T1: human GIP receptor (human, UniProt P48546 22-466)
T1 sequence (looked up): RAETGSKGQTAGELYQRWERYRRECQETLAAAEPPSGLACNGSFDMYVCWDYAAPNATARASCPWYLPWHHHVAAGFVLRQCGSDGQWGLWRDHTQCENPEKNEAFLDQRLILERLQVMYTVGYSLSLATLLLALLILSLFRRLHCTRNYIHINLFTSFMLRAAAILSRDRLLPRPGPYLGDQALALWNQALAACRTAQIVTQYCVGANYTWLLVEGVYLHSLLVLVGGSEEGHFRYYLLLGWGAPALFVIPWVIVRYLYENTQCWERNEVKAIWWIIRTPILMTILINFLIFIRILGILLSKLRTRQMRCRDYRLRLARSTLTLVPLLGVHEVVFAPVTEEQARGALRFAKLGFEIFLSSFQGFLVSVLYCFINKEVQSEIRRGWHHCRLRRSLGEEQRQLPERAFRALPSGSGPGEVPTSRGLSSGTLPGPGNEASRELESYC

B1: Compound 50 (peptide)
peptide: H-Y[Aib]EGTFTSDYSIYLDEK([γGlu-Palmitoyl])AAKDFIEWLESA-NH2
SMILES: CCCCCCCCCCCCCCCC(=O)N[C@@H](CCC(=O)NCCCC[C@H](NC(=O)[C@H](CCC(=O)O)NC(=O)[C@H](CC(=O)O)NC(=O)[C@H](CC(C)C)NC(=O)[C@H](Cc1ccc(O)cc1)NC(=O)[C@@H](NC(=O)[C@H](CO)NC(=O)[C@H](Cc1ccc(O)cc1)NC(=O)[C@H](CC(=O)O)NC(=O)[C@H](CO)NC(=O)[C@@H](NC(=O)[C@H](Cc1ccccc1)NC(=O)[C@@H](NC(=O)CNC(=O)[C@H](CCC(=O)O)NC(=O)C(C)(C)NC(=O)[C@@H](N)Cc1ccc(O)cc1)[C@@H](C)O)[C@@H](C)O)[C@@H](C)CC)C(=O)N[C@@H](C)C(=O)N[C@@H](C)C(=O)N[C@@H](CCCCN)C(=O)N[C@@H](CC(=O)O)C(=O)N[C@@H](Cc1ccccc1)C(=O)N[C@H](C(=O)N[C@@H](CCC(=O)O)C(=O)N[C@@H](Cc1c[nH]c2ccccc12)C(=O)N[C@@H](CC(C)C)C(=O)N[C@@H](CCC(=O)O)C(=O)N[C@@H](CO)C(=O)N[C@@H](C)C(N)=O)[C@@H](C)CC)C(=O)O
B2: Compound 51 (peptide)
peptide: H-Y[Aib]EGTFTSDYSKYLDSK([γGlu-Palmitoyl])AAHDFVEWLLRA-NH2
SMILES: CCCCCCCCCCCCCCCC(=O)N[C@@H](CCC(=O)NCCCC[C@H](NC(=O)[C@H](CO)NC(=O)[C@H](CC(=O)O)NC(=O)[C@H](CC(C)C)NC(=O)[C@H](Cc1ccc(O)cc1)NC(=O)[C@H](CCCCN)NC(=O)[C@H](CO)NC(=O)[C@H](Cc1ccc(O)cc1)NC(=O)[C@H](CC(=O)O)NC(=O)[C@H](CO)NC(=O)[C@@H](NC(=O)[C@H](Cc1ccccc1)NC(=O)[C@@H](NC(=O)CNC(=O)[C@H](CCC(=O)O)NC(=O)C(C)(C)NC(=O)[C@@H](N)Cc1ccc(O)cc1)[C@@H](C)O)[C@@H](C)O)C(=O)N[C@@H](C)C(=O)N[C@@H](C)C(=O)N[C@@H](Cc1c[nH]cn1)C(=O)N[C@@H](CC(=O)O)C(=O)N[C@@H](Cc1ccccc1)C(=O)N[C@H](C(=O)N[C@@H](CCC(=O)O)C(=O)N[C@@H](Cc1c[nH]c2ccccc12)C(=O)N[C@@H](CC(C)C)C(=O)N[C@@H](CC(C)C)C(=O)N[C@@H](CCCNC(=N)N)C(=O)N[C@@H](C)C(N)=O)C(C)C)C(=O)O
B3: Compound 49 (peptide)
peptide: H-Y[Aib]EGTFTSDYSKYLDEK([γGlu-Palmitoyl])AAKDFIEWLESA-NH2
SMILES: CCCCCCCCCCCCCCCC(=O)N[C@@H](CCC(=O)NCCCC[C@H](NC(=O)[C@H](CCC(=O)O)NC(=O)[C@H](CC(=O)O)NC(=O)[C@H](CC(C)C)NC(=O)[C@H](Cc1ccc(O)cc1)NC(=O)[C@H](CCCCN)NC(=O)[C@H](CO)NC(=O)[C@H](Cc1ccc(O)cc1)NC(=O)[C@H](CC(=O)O)NC(=O)[C@H](CO)NC(=O)[C@@H](NC(=O)[C@H](Cc1ccccc1)NC(=O)[C@@H](NC(=O)CNC(=O)[C@H](CCC(=O)O)NC(=O)C(C)(C)NC(=O)[C@@H](N)Cc1ccc(O)cc1)[C@@H](C)O)[C@@H](C)O)C(=O)N[C@@H](C)C(=O)N[C@@H](C)C(=O)N[C@@H](CCCCN)C(=O)N[C@@H](CC(=O)O)C(=O)N[C@@H](Cc1ccccc1)C(=O)N[C@H](C(=O)N[C@@H](CCC(=O)O)C(=O)N[C@@H](Cc1c[nH]c2ccccc12)C(=O)N[C@@H](CC(C)C)C(=O)N[C@@H](CCC(=O)O)C(=O)N[C@@H](CO)C(=O)N[C@@H](C)C(N)=O)[C@@H](C)CC)C(=O)O
B4: Compound 47 (peptide)
peptide: H-Y[Aib]EGTFTSDYSIYLDSK([γGlu-Palmitoyl])AAHDFVEWLLRA-NH2
SMILES: CCCCCCCCCCCCCCCC(=O)N[C@@H](CCC(=O)NCCCC[C@H](NC(=O)[C@H](CO)NC(=O)[C@H](CC(=O)O)NC(=O)[C@H](CC(C)C)NC(=O)[C@H](Cc1ccc(O)cc1)NC(=O)[C@@H](NC(=O)[C@H](CO)NC(=O)[C@H](Cc1ccc(O)cc1)NC(=O)[C@H](CC(=O)O)NC(=O)[C@H](CO)NC(=O)[C@@H](NC(=O)[C@H](Cc1ccccc1)NC(=O)[C@@H](NC(=O)CNC(=O)[C@H](CCC(=O)O)NC(=O)C(C)(C)NC(=O)[C@@H](N)Cc1ccc(O)cc1)[C@@H](C)O)[C@@H](C)O)[C@@H](C)CC)C(=O)N[C@@H](C)C(=O)N[C@@H](C)C(=O)N[C@@H](Cc1c[nH]cn1)C(=O)N[C@@H](CC(=O)O)C(=O)N[C@@H](Cc1ccccc1)C(=O)N[C@H](C(=O)N[C@@H](CCC(=O)O)C(=O)N[C@@H](Cc1c[nH]c2ccccc12)C(=O)N[C@@H](CC(C)C)C(=O)N[C@@H](CC(C)C)C(=O)N[C@@H](CCCNC(=N)N)C(=O)N[C@@H](C)C(N)=O)C(C)C)C(=O)O
B5: Compound 48 (peptide)
peptide: H-Y[Aib]EGTFTSDYSIYLDEK([γGlu-Palmitoyl])AAKDFVEWLESA-NH2
SMILES: CCCCCCCCCCCCCCCC(=O)N[C@@H](CCC(=O)NCCCC[C@H](NC(=O)[C@H](CCC(=O)O)NC(=O)[C@H](CC(=O)O)NC(=O)[C@H](CC(C)C)NC(=O)[C@H](Cc1ccc(O)cc1)NC(=O)[C@@H](NC(=O)[C@H](CO)NC(=O)[C@H](Cc1ccc(O)cc1)NC(=O)[C@H](CC(=O)O)NC(=O)[C@H](CO)NC(=O)[C@@H](NC(=O)[C@H](Cc1ccccc1)NC(=O)[C@@H](NC(=O)CNC(=O)[C@H](CCC(=O)O)NC(=O)C(C)(C)NC(=O)[C@@H](N)Cc1ccc(O)cc1)[C@@H](C)O)[C@@H](C)O)[C@@H](C)CC)C(=O)N[C@@H](C)C(=O)N[C@@H](C)C(=O)N[C@@H](CCCCN)C(=O)N[C@@H](CC(=O)O)C(=O)N[C@@H](Cc1ccccc1)C(=O)N[C@H](C(=O)N[C@@H](CCC(=O)O)C(=O)N[C@@H](Cc1c[nH]c2ccccc12)C(=O)N[C@@H](CC(C)C)C(=O)N[C@@H](CCC(=O)O)C(=O)N[C@@H](CO)C(=O)N[C@@H](C)C(N)=O)C(C)C)C(=O)O

Assays:
human GLP-1 receptor = human GLP-1 receptor (human, UniProt P43220 24-463); assay: cell-based or functional assay
human GIP receptor = target: T1, human GIP receptor; assay: cell-based or functional assay

Binder	EC50, cAMP induction in HEK293 cells expressing human GLP-1 R (human GLP-1 receptor) [nM]	EC50, cAMP induction in HEK293 cells expressing human GIP R (human GIP receptor) [nM]
B1	0.09	0.053
B2	0.11	0.24
B3	0.049	0.092
B4	0.14	0.096
B5	0.041	0.061
